pKd: −log10 of the molar value.
Target: Ccc1(1-109), truncated recombinant fragment of Ccc1 that contains its chromodomain (Cryptococcus neoformans)
Assay: fluorescence polarisation

Row | pKd | Substance
1 | 4.55 | unlabeled Cryptococcus H3K27me3 peptide
2 | 3.92 | unlabeled Cryptococcus H3K27me2 peptide

— publication PMC4303595
